Like-named read-outs stand apart in the source and are kept apart here.

B2: KaiA (natural protein)
chain: MLSQIAICIWVESTAILQDCQRALSADRYQLQVCESGEMLLEYAQTHRDQIDCLILVAANPSFRAVVQQLCFEGVVVPAIVVGDRDSEDPDEPAKEQLYHSAELHLGIHQLEQLPYQVDAALAEFLRLAPVETMADHIMLMGANHDPELSSQQRDLAQRLQERLGYLGVYYKRDPDRFLRNLPAYESQKLHQAMQTSYREIVLSYFSPNSNLNQSIDNFVNMAFFADVPVTKVVEIHMELMDEFAKKLRVEGRSEDILLDYRLTLIDVIAHLCEMYRRSIPRET
B3: KaiC (natural protein)
chain: MTSAEMTSPNNNSEHQAIAKMRTMIEGFDDISHGGLPIGRSTLVSGTSGTGKTLFSIQFLYNGIIEFDEPGVFVTFEETPQDIIKNARSFGWDLAKLVDEGKLFILDASPDPEGQEVVGGFDLSALIERINYAIQKYRARRVSIDSVTSVFQQYDASSVVRRELFRLVARLKQIGATTVMTTERIEEYGPIARYGVEEFVSDNVVILRNVLEGERRRRTLEILKLRGTSHMKGEYPFTITDHGINIFPLGAMRLTQRSSNVRVSSGVVRLDEMCGGGFFKDSIILATGATGTGKTLLVSRFVENACANKERAILFAYEESRAQLLRNAYSWGMDFEEMERQNLLKIVCAYPESAGLEDHLQIIKSEINDFKPARIAIDSLSALARGVSNNAFRQFVIGVTGYAKQEEITGLFTNTSDQFMGAHSITDSHISTITDTIILLQYVEIRGEMSRAINVFKMRGSWHDKAIREFMISDKGPDIKDSFRNFERIISGSPTRITVDEKSELSRIVRGVQEKGPES
B4: KaiCDT (phosphorylation mimic KaiC) (natural protein)
chain: MTSAEMTSPNNNSEHQAIAKMRTMIEGFDDISHGGLPIGRSTLVSGTSGTGKTLFSIQFLYNGIIEFDEPGVFVTFEETPQDIIKNARSFGWDLAKLVDEGKLFILDASPDPEGQEVVGGFDLSALIERINYAIQKYRARRVSIDSVTSVFQQYDASSVVRRELFRLVARLKQIGATTVMTTERIEEYGPIARYGVEEFVSDNVVILRNVLEGERRRRTLEILKLRGTSHMKGEYPFTITDHGINIFPLGAMRLTQRSSNVRVSSGVVRLDEMCGGGFFKDSIILATGATGTGKTLLVSRFVENACANKERAILFAYEESRAQLLRNAYSWGMDFEEMERQNLLKIVCAYPESAGLEDHLQIIKSEINDFKPARIAIDSLSALARGVSNNAFRQFVIGVTGYAKQEEITGLFTNTSDQFMGAHSITDSHIDTITDTIILLQYVEIRGEMSRAINVFKMRGSWHDKAIREFMISDKGPDIKDSFRNFERIISGSPTRITVDEKSELSRIVRGVQEKGPES

Holding throughout (assay): AUC
Data set [1] concerns the molecule itself.
The target in data set [2] is B4.
The data set “KaiC” has as its target B3.
Data set [3] concerns the molecule itself. This is another data set of the same source.
The data set “KaiA” addresses B2.

B1: KaiB (natural protein)
chain: MSPRKTYILKLYVAGNTPNSVRALKTLKNILEVEFQGVYALKVIDVLKNPQLAEEDKILATPTLAKVLPLPVRRIIGDLSDREKVLIGLDLLYGELQDSDDF
For B1, the “stoichiometry N” value in “AUC [1]” was 4. In addition, the binding result (in data set [2]; with KaiC) was “binds” throughout.

Turning to B2, the “stoichiometry N” value in the data set “AUC [1]” came out at 2.

As for B3, the “stoichiometry N” value in the data set “AUC [3]” worked out at 6.

As for B4, the binding result in the data set “AUC [1]” was “binds”.

B5: KaiCAA (dephosphorylation mimic KaiC) (natural protein)
chain: MTSAEMTSPNNNSEHQAIAKMRTMIEGFDDISHGGLPIGRSTLVSGTSGTGKTLFSIQFLYNGIIEFDEPGVFVTFEETPQDIIKNARSFGWDLAKLVDEGKLFILDASPDPEGQEVVGGFDLSALIERINYAIQKYRARRVSIDSVTSVFQQYDASSVVRRELFRLVARLKQIGATTVMTTERIEEYGPIARYGVEEFVSDNVVILRNVLEGERRRRTLEILKLRGTSHMKGEYPFTITDHGINIFPLGAMRLTQRSSNVRVSSGVVRLDEMCGGGFFKDSIILATGATGTGKTLLVSRFVENACANKERAILFAYEESRAQLLRNAYSWGMDFEEMERQNLLKIVCAYPESAGLEDHLQIIKSEINDFKPARIAIDSLSALARGVSNNAFRQFVIGVTGYAKQEEITGLFTNTSDQFMGAHSITDSHIAAITDTIILLQYVEIRGEMSRAINVFKMRGSWHDKAIREFMISDKGPDIKDSFRNFERIISGSPTRITVDEKSELSRIVRGVQEKGPES
As for B5, the “stoichiometry N” value in the data set “AUC [3]” was 6. In the data set with KaiA, the binding result is on record as “binds”.

A word on the stoichiometry N: it is the number of molecules, sites or subunits per partner or assembly.

Source of the values: doi:10.1101/2022.08.26.505376 (bioRxiv, 2022).
